Target: the molecule itself
Test: SEC; Superose 6 HR 10/30; 10 mM Hepes pH 8.0, 300 mM KCl, 10% glycerol, 1 mM 2-mercaptoethanol; 0.4 ml/min; calibrated with molecular-mass markers

B1: C-terminal domain of the MutL homolog of Neisseria gonorrhoeae (NgoL-CTD), wild type (domain or fragment, UniProt Q5F8M6 458-658, looked up)
chain: IPSQSELPPLGFAIAQLLGIYILAQAEDSLLLIDMHAAAERVNYEKMKRQRQENGNLQSQHLLIPVTFAASHEECAALADHAETLAGFGLELSDMGGNTLAVRAAPVMLGKSDVVSLARDVLGELAQVGSSQTIASHENRILATMSCHGSIRAGRRLTLPEMNALLRDMENTPRSNQCNHGRPTWVKLTLKELDTLFLRGQ
notes: MutL homolog (NgoL) of Neisseria gonorrhoeae, C-terminal domain, residues 458-658; In the model, residues 463-654 (monomer A) and 464-656 (monomer B) are built; 587-591 are disordered; also called C-terminal domain of NgoL; source: selenomethionine-labelled form in E. coli B834
  stoichiometry N: 2

— article PMC2965676, “The C-Terminal Domain of the MutL Homolog from Neisseria gonorrhoeae Forms an Inverted Homodimer” (PLoS ONE, 2010)
